Patent publication US20180142016A1 (EUREKA THERAPEUTICS, published 2018)
Numbering of substitutions follows the chain as printed.

B1: 601-1 (antibody, V domains shown)
VH: EVQLVESGGGLVKPGGSLRLSCAASGFTFSDYYMSWIRQAPGKGLEWVSYISDSTNTIYYADSVKGRFTVSRDNPKNSLYLQMISLRAEDTAVYYCARAVGAGEGFDHWGQGTLVTVSS
VL: not shown
modifications: Zenon Alexa Fluor 647 label, bound non-covalently to the Fc, is not carried in the letters
notes: the phage clone of the same number is m13; also called Antibody 601-1; copies: 2 + 2
B2: 601-43 (antibody, V domains shown)
VH: QVQLQQSGAEVKKPGASVRVSCKASGYSFGNNGITWVRQAPGQGLEWMGWISTYNGNTNYAQKLQGRVTMTTDTSTSTAYMELRSLRSDDTAVYYCARDYYSDSSGYWDDAFDIWGQGTTVTVSS
VL: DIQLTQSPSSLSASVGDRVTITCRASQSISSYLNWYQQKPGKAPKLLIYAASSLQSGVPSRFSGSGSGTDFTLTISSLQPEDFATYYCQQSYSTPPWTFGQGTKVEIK
modifications: Zenon Alexa Fluor 647 label, bound non-covalently to the Fc, is not carried in the letters
notes: the phage clone of the same number is m16; also called Antibody 601-43; copies: 2 + 2
B3: 601-51 (antibody, V domains shown)
VH: not shown
VL: QSALTQPASVSGSPGQSITISCTGTSSDFGDYDYVSWYQQHPGKAPKLMIYDVSDRPSGVSNRFSGSKSGNTASLTISGLQAEDEADYFCSSFTTSSTLVFGGGTKLTVL
modifications: Zenon Alexa Fluor 647 label, bound non-covalently to the Fc, is not carried in the letters
notes: the phage clone of the same number is m19; also called Antibody 601-51; copies: 2 + 2
B4: 601-56 (antibody, V domains shown)
VH: QLQLQESGPGLVKPSETLSLTCTVSGGSISSSSYYWGWIRQPPGKGLEWIGSIYYSGSTYYNPSLKSRVTISVDTSKNQFSLKLGSVTAADTAVYYCARHDGTDAFDIWGQGTTVTVSS
VL: B3 VL with A3V, F93L
modifications: Zenon Alexa Fluor 647 label, bound non-covalently to the Fc, is not carried in the letters
notes: the phage clone of the same number is m28; also called Antibody 601-56; copies: 2 + 2
B5: 601-69 (antibody, V domains shown)
VH: QVQLVQSGAEVKKPGESLKISCKGSGYSFTSYWIGWVRQMPGKGLEWMGIIYPGDSDTRYSPSFQGQVTISADKSISTAYLQWSSLKASDTAMYYCARLSSSSYDAFDIWGQGTMVTVSS
VL: QSALTQPASVSGSPGQSITISCTGTSSDVGGYNYVSWYQQHPGKAPKLMIYDVSNRPSGVSNRFSGSKSGNTASLTISGLQAEDEADYYCSSYTSSSIPWVFGGGTKLTVL
modifications: Zenon Alexa Fluor 647 label, bound non-covalently to the Fc, is not carried in the letters
notes: the phage clone of the same number is m50; also called Antibody 601-69; copies: 2 + 2
B6: 601-86 (antibody, V domains shown)
VH: QVTLKESGPTLLKPTQTLTLTCTFSGFSLSTRGVGVGWIRQPPGQALEWLTLIYWDDDKRYSPSLKSRLTITKDTSKNQVVLTMTNMESVDTATYYCAQQTMTGAFDIWGQGTTVTVSS
VL: DIQMTQSPSSVSASVGDRVTITCRASQGISTLLAWYQQKPGKAPKLLISSASSLQSGVPARFSGSGSGTDFTLTISSLQPEDFATYYCQQSYRAPTFGQGTKVEIK
modifications: Zenon Alexa Fluor 647 label, bound non-covalently to the Fc, is not carried in the letters
notes: the phage clone of the same number is m27; also called Antibody 601-86; copies: 2 + 2
B7: 601-137 (antibody, V domains shown)
VH: QVQLQQSGAEVKKPGASVKVSCKASGYTFSRYYIHWVRQAPGQGLEWMGIINTDGGTTTYAQKFQGRLTMTRDTSTSTVYMELSSLRSDDTAVYYCARDYGTIDARRFDYWGQGTLVTVSS
VL: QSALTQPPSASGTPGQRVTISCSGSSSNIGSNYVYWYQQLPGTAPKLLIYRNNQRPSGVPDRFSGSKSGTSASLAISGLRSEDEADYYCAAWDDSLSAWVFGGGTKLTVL
modifications: Non-covalent Zenon Alexa Fluor 647 label in the assay, not part of the letters
notes: the phage clone of the same number is m26; also called Antibody 601-137; copies: 2 + 2

Each binder was assayed against T1, human ROR1 on the cell surface (human, UniProt Q01973 30-937) (assay: flow cytometry, Zenon Alexa Fluor 647-labelled antibody on CD5+ CD19+ CLL cells of patient 13, MFI of the isotype control at the same concentration subtracted).
T1 construct: Endogenous ROR1 of MDA-MB-231, A549, H1299, Jeko-1, primary CLL cells; also called cell surface ROR1; ROR1 positive cells
T1 sequence (Q01973 30-937 limits assumed): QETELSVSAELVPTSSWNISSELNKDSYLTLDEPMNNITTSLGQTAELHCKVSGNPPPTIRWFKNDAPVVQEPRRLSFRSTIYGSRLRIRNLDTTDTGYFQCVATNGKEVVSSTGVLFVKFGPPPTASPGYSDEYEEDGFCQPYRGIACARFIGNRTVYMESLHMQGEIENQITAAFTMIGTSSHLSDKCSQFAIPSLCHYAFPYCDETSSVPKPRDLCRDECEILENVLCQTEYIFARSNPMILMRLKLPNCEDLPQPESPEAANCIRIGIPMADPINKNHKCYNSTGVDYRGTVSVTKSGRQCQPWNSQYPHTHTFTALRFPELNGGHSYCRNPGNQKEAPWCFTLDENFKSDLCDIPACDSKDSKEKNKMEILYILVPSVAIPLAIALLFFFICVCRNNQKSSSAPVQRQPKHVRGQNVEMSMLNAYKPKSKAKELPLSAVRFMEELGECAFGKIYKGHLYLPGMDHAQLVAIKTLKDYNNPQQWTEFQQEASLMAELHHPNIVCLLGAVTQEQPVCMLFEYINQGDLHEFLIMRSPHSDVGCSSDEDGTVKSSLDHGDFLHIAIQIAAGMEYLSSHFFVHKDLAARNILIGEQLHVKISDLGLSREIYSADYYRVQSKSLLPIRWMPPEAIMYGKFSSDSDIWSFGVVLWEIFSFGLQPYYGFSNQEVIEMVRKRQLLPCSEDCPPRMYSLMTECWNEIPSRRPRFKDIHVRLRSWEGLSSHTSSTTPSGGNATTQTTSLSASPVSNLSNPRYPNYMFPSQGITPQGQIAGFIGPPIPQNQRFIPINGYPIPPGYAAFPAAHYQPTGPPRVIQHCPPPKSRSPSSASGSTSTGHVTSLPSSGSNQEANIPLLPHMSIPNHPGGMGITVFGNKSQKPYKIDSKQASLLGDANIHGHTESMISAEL
Experimental: Anti-ROR1 and control IgG1 antibodies were labeled using a Zenon® Alexa Fluor® 647 human IgG labeling kit (Life Technologies) according to the manufacturer's directions. Frozen peripheral blood mononuclear cells (PBMC) from CLL patients (AllCells LLC) were thawed and washed in FACS buffer (PBS, 2% heat inactivated FBS, 0.1% NaN3). CLL cells were counted and resuspended at 4×10E6 cell/mL in FACS buffer. 2×10E5 cells per test were then incubated in […] FACS buffer with phycoerythrin (PE)-labeled anti-CD5, […] isothiocyanate (FITC)-labeled anti-CD19 (BD Biosciences) and Zenon® Alexa Fluor® 647-labelled anti-ROR1 or control human IgG1 ET901 (Eureka Therapeutics) for 30 minutes on ice. Following incubation, the cells were washed twice in FACS buffer and fixed in 2% paraformaldehyde in PBS (final concentration). Cells were run on a BD LSRII flow cytometer (BD Biosciences) and analyzed using FlowJo software (Treestar).
CLL cells identified as CD5 and CD19 double positive were assessed for anti-ROR1 or control Ig staining.

Binder	binding result
B1	binds
B2	binds
B3	binds
B4	binds
B5	binds
B6	binds
B7	binds
